This note sets out measurements from patent publication US20180009871A1 (INTARCIA THERAPEUTICS, published 2018).

B1: Compound A9 (peptide)
peptide: YSHGTFTSDYSKYLD[Aib]KRAQEFV[Aib]WLEEEPSSGAPPPS-OH
modifications: N-terminus assumed
SMILES: CC(C)C[C@H](NC(=O)[C@H](Cc1ccc(O)cc1)NC(=O)[C@H](CCCCN)NC(=O)[C@H](CO)NC(=O)[C@H](Cc1ccc(O)cc1)NC(=O)[C@H](CC(=O)O)NC(=O)[C@H](CO)NC(=O)[C@@H](NC(=O)[C@H](Cc1ccccc1)NC(=O)[C@@H](NC(=O)CNC(=O)[C@H](Cc1c[nH]cn1)NC(=O)[C@H](CO)NC(=O)[C@@H](N)Cc1ccc(O)cc1)[C@@H](C)O)[C@@H](C)O)C(=O)N[C@@H](CC(=O)O)C(=O)NC(C)(C)C(=O)N[C@@H](CCCCN)C(=O)N[C@@H](CCCNC(=N)N)C(=O)N[C@@H](C)C(=O)N[C@@H](CCC(N)=O)C(=O)N[C@@H](CCC(=O)O)C(=O)N[C@@H](Cc1ccccc1)C(=O)N[C@H](C(=O)NC(C)(C)C(=O)N[C@@H](Cc1c[nH]c2ccccc12)C(=O)N[C@@H](CC(C)C)C(=O)N[C@@H](CCC(=O)O)C(=O)N[C@@H](CCC(=O)O)C(=O)N[C@@H](CCC(=O)O)C(=O)N1CCC[C@H]1C(=O)N[C@@H](CO)C(=O)N[C@@H](CO)C(=O)NCC(=O)N[C@@H](C)C(=O)N1CCC[C@H]1C(=O)N1CCC[C@H]1C(=O)N1CCC[C@H]1C(=O)N[C@@H](CO)C(=O)O)C(C)C
B2: Compound A8 (peptide)
peptide: YSHGTFTSDYSKYLD[Aib]KRAQEFV[Aib]WLEDEPSSGAPPPS-NH2
modifications: N-terminus assumed
SMILES: CC(C)C[C@H](NC(=O)[C@H](Cc1ccc(O)cc1)NC(=O)[C@H](CCCCN)NC(=O)[C@H](CO)NC(=O)[C@H](Cc1ccc(O)cc1)NC(=O)[C@H](CC(=O)O)NC(=O)[C@H](CO)NC(=O)[C@@H](NC(=O)[C@H](Cc1ccccc1)NC(=O)[C@@H](NC(=O)CNC(=O)[C@H](Cc1c[nH]cn1)NC(=O)[C@H](CO)NC(=O)[C@@H](N)Cc1ccc(O)cc1)[C@@H](C)O)[C@@H](C)O)C(=O)N[C@@H](CC(=O)O)C(=O)NC(C)(C)C(=O)N[C@@H](CCCCN)C(=O)N[C@@H](CCCNC(=N)N)C(=O)N[C@@H](C)C(=O)N[C@@H](CCC(N)=O)C(=O)N[C@@H](CCC(=O)O)C(=O)N[C@@H](Cc1ccccc1)C(=O)N[C@H](C(=O)NC(C)(C)C(=O)N[C@@H](Cc1c[nH]c2ccccc12)C(=O)N[C@@H](CC(C)C)C(=O)N[C@@H](CCC(=O)O)C(=O)N[C@@H](CC(=O)O)C(=O)N[C@@H](CCC(=O)O)C(=O)N1CCC[C@H]1C(=O)N[C@@H](CO)C(=O)N[C@@H](CO)C(=O)NCC(=O)N[C@@H](C)C(=O)N1CCC[C@H]1C(=O)N1CCC[C@H]1C(=O)N1CCC[C@H]1C(=O)N[C@@H](CO)C(N)=O)C(C)C
B3: Compound A11 (peptide)
peptide: YSHGTFTSDYSKYLD[Aib]KRAQEFV[Aib]WLEDEEEPSSGAPPPS-OH
modifications: N-terminus assumed
SMILES: CC(C)C[C@H](NC(=O)[C@H](Cc1ccc(O)cc1)NC(=O)[C@H](CCCCN)NC(=O)[C@H](CO)NC(=O)[C@H](Cc1ccc(O)cc1)NC(=O)[C@H](CC(=O)O)NC(=O)[C@H](CO)NC(=O)[C@@H](NC(=O)[C@H](Cc1ccccc1)NC(=O)[C@@H](NC(=O)CNC(=O)[C@H](Cc1c[nH]cn1)NC(=O)[C@H](CO)NC(=O)[C@@H](N)Cc1ccc(O)cc1)[C@@H](C)O)[C@@H](C)O)C(=O)N[C@@H](CC(=O)O)C(=O)NC(C)(C)C(=O)N[C@@H](CCCCN)C(=O)N[C@@H](CCCNC(=N)N)C(=O)N[C@@H](C)C(=O)N[C@@H](CCC(N)=O)C(=O)N[C@@H](CCC(=O)O)C(=O)N[C@@H](Cc1ccccc1)C(=O)N[C@H](C(=O)NC(C)(C)C(=O)N[C@@H](Cc1c[nH]c2ccccc12)C(=O)N[C@@H](CC(C)C)C(=O)N[C@@H](CCC(=O)O)C(=O)N[C@@H](CC(=O)O)C(=O)N[C@@H](CCC(=O)O)C(=O)N[C@@H](CCC(=O)O)C(=O)N[C@@H](CCC(=O)O)C(=O)N1CCC[C@H]1C(=O)N[C@@H](CO)C(=O)N[C@@H](CO)C(=O)NCC(=O)N[C@@H](C)C(=O)N1CCC[C@H]1C(=O)N1CCC[C@H]1C(=O)N1CCC[C@H]1C(=O)N[C@@H](CO)C(=O)O)C(C)C
B4: Compound A13 (peptide)
peptide: YSHGTFTSDYSKYLD[Aib]KRAQEFV[Aib]WLEDESGAPPPS-OH
modifications: N-terminus assumed
SMILES: CC(C)C[C@H](NC(=O)[C@H](Cc1ccc(O)cc1)NC(=O)[C@H](CCCCN)NC(=O)[C@H](CO)NC(=O)[C@H](Cc1ccc(O)cc1)NC(=O)[C@H](CC(=O)O)NC(=O)[C@H](CO)NC(=O)[C@@H](NC(=O)[C@H](Cc1ccccc1)NC(=O)[C@@H](NC(=O)CNC(=O)[C@H](Cc1c[nH]cn1)NC(=O)[C@H](CO)NC(=O)[C@@H](N)Cc1ccc(O)cc1)[C@@H](C)O)[C@@H](C)O)C(=O)N[C@@H](CC(=O)O)C(=O)NC(C)(C)C(=O)N[C@@H](CCCCN)C(=O)N[C@@H](CCCNC(=N)N)C(=O)N[C@@H](C)C(=O)N[C@@H](CCC(N)=O)C(=O)N[C@@H](CCC(=O)O)C(=O)N[C@@H](Cc1ccccc1)C(=O)N[C@H](C(=O)NC(C)(C)C(=O)N[C@@H](Cc1c[nH]c2ccccc12)C(=O)N[C@@H](CC(C)C)C(=O)N[C@@H](CCC(=O)O)C(=O)N[C@@H](CC(=O)O)C(=O)N[C@@H](CCC(=O)O)C(=O)N[C@@H](CO)C(=O)NCC(=O)N[C@@H](C)C(=O)N1CCC[C@H]1C(=O)N1CCC[C@H]1C(=O)N1CCC[C@H]1C(=O)N[C@@H](CO)C(=O)O)C(C)C
B5: Compound A14 (peptide)
peptide: YSHGTFTSDYSKYLD[Aib]KRAQEFV[Aib]WLEDESSGAPPPS-OH
modifications: N-terminus assumed
SMILES: CC(C)C[C@H](NC(=O)[C@H](Cc1ccc(O)cc1)NC(=O)[C@H](CCCCN)NC(=O)[C@H](CO)NC(=O)[C@H](Cc1ccc(O)cc1)NC(=O)[C@H](CC(=O)O)NC(=O)[C@H](CO)NC(=O)[C@@H](NC(=O)[C@H](Cc1ccccc1)NC(=O)[C@@H](NC(=O)CNC(=O)[C@H](Cc1c[nH]cn1)NC(=O)[C@H](CO)NC(=O)[C@@H](N)Cc1ccc(O)cc1)[C@@H](C)O)[C@@H](C)O)C(=O)N[C@@H](CC(=O)O)C(=O)NC(C)(C)C(=O)N[C@@H](CCCCN)C(=O)N[C@@H](CCCNC(=N)N)C(=O)N[C@@H](C)C(=O)N[C@@H](CCC(N)=O)C(=O)N[C@@H](CCC(=O)O)C(=O)N[C@@H](Cc1ccccc1)C(=O)N[C@H](C(=O)NC(C)(C)C(=O)N[C@@H](Cc1c[nH]c2ccccc12)C(=O)N[C@@H](CC(C)C)C(=O)N[C@@H](CCC(=O)O)C(=O)N[C@@H](CC(=O)O)C(=O)N[C@@H](CCC(=O)O)C(=O)N[C@@H](CO)C(=O)N[C@@H](CO)C(=O)NCC(=O)N[C@@H](C)C(=O)N1CCC[C@H]1C(=O)N1CCC[C@H]1C(=O)N1CCC[C@H]1C(=O)N[C@@H](CO)C(=O)O)C(C)C
B6: Compound A12 (peptide)
peptide: YSHGTFTSDYSKYLD[Aib]KRAQEFV[Aib]WLEDEGAPPPS-OH
modifications: N-terminus assumed
SMILES: CC(C)C[C@H](NC(=O)[C@H](Cc1ccc(O)cc1)NC(=O)[C@H](CCCCN)NC(=O)[C@H](CO)NC(=O)[C@H](Cc1ccc(O)cc1)NC(=O)[C@H](CC(=O)O)NC(=O)[C@H](CO)NC(=O)[C@@H](NC(=O)[C@H](Cc1ccccc1)NC(=O)[C@@H](NC(=O)CNC(=O)[C@H](Cc1c[nH]cn1)NC(=O)[C@H](CO)NC(=O)[C@@H](N)Cc1ccc(O)cc1)[C@@H](C)O)[C@@H](C)O)C(=O)N[C@@H](CC(=O)O)C(=O)NC(C)(C)C(=O)N[C@@H](CCCCN)C(=O)N[C@@H](CCCNC(=N)N)C(=O)N[C@@H](C)C(=O)N[C@@H](CCC(N)=O)C(=O)N[C@@H](CCC(=O)O)C(=O)N[C@@H](Cc1ccccc1)C(=O)N[C@H](C(=O)NC(C)(C)C(=O)N[C@@H](Cc1c[nH]c2ccccc12)C(=O)N[C@@H](CC(C)C)C(=O)N[C@@H](CCC(=O)O)C(=O)N[C@@H](CC(=O)O)C(=O)N[C@@H](CCC(=O)O)C(=O)NCC(=O)N[C@@H](C)C(=O)N1CCC[C@H]1C(=O)N1CCC[C@H]1C(=O)N1CCC[C@H]1C(=O)N[C@@H](CO)C(=O)O)C(C)C
B7: Compound A10 (peptide)
peptide: YSHGTFTSDYSKYLD[Aib]KRAQEFV[Aib]WLEDEEPSSGAPPPS-OH
modifications: N-terminus assumed
SMILES: CC(C)C[C@H](NC(=O)[C@H](Cc1ccc(O)cc1)NC(=O)[C@H](CCCCN)NC(=O)[C@H](CO)NC(=O)[C@H](Cc1ccc(O)cc1)NC(=O)[C@H](CC(=O)O)NC(=O)[C@H](CO)NC(=O)[C@@H](NC(=O)[C@H](Cc1ccccc1)NC(=O)[C@@H](NC(=O)CNC(=O)[C@H](Cc1c[nH]cn1)NC(=O)[C@H](CO)NC(=O)[C@@H](N)Cc1ccc(O)cc1)[C@@H](C)O)[C@@H](C)O)C(=O)N[C@@H](CC(=O)O)C(=O)NC(C)(C)C(=O)N[C@@H](CCCCN)C(=O)N[C@@H](CCCNC(=N)N)C(=O)N[C@@H](C)C(=O)N[C@@H](CCC(N)=O)C(=O)N[C@@H](CCC(=O)O)C(=O)N[C@@H](Cc1ccccc1)C(=O)N[C@H](C(=O)NC(C)(C)C(=O)N[C@@H](Cc1c[nH]c2ccccc12)C(=O)N[C@@H](CC(C)C)C(=O)N[C@@H](CCC(=O)O)C(=O)N[C@@H](CC(=O)O)C(=O)N[C@@H](CCC(=O)O)C(=O)N[C@@H](CCC(=O)O)C(=O)N1CCC[C@H]1C(=O)N[C@@H](CO)C(=O)N[C@@H](CO)C(=O)NCC(=O)N[C@@H](C)C(=O)N1CCC[C@H]1C(=O)N1CCC[C@H]1C(=O)N1CCC[C@H]1C(=O)N[C@@H](CO)C(=O)O)C(C)C

Where no end group is shown, it is not given here. [ ]: non-standard residue; d: D form. Aib = CC(C)(N)C(=O)O

human GLP-1 receptor (GLP-1R), sequence (P43220 24-463): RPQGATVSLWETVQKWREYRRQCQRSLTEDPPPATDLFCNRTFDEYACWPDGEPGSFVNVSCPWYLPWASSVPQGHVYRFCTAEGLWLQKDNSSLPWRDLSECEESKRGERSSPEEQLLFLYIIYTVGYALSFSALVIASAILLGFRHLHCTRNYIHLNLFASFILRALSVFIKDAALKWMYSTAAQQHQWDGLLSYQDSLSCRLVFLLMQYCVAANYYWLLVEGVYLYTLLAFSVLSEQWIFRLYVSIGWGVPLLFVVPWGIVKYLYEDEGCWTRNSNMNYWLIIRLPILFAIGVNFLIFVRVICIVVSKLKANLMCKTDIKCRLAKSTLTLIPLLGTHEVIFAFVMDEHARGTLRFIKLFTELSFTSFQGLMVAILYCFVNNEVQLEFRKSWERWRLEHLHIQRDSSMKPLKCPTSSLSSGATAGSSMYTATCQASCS

One experiment addresses human GLP-1 receptor (GLP-1R) (human, UniProt P43220 24-463). The experiment can be described thus: cell-based or functional assay.
As for B1, the “hGLP1 pEC50 (cAMP)” value is under 9 pEC50.

As to B2, the “hGLP1 pEC50 (cAMP)” value is under 9 pEC50.

On to B3, for which the “hGLP1 pEC50 (cAMP)” value was under 9 pEC50.

On to B4, for which the “hGLP1 pEC50 (cAMP)” value is under 9 pEC50.

Consider B5, for which the “hGLP1 pEC50 (cAMP)” value is under 9 pEC50.

In the case of B6, the “hGLP1 pEC50 (cAMP)” value was under 9 pEC50.

In the case of B7, the “hGLP1 pEC50 (cAMP)” value was under 9 pEC50.

A further experiment addresses human glucagon receptor (GCGR) (human, UniProt P47871 26-477). The experiment in a line: cell-based or functional assay.
Take B1: the “hGCGR pEC50 (cAMP)” value was 13 pEC50.

For B2, the “hGCGR pEC50 (cAMP)” value stood at 12.3 pEC50.

As to B3, the “hGCGR pEC50 (cAMP)” value stood at 11.2 pEC50.

Consider B4, for which the “hGCGR pEC50 (cAMP)” value stood at 12.3 pEC50.

On to B5, for which the “hGCGR pEC50 (cAMP)” value came out at 12 pEC50.

Consider B6, for which the “hGCGR pEC50 (cAMP)” value came out at 13.2 pEC50.

Turning to B7, the “hGCGR pEC50 (cAMP)” value stood at 11.3 pEC50.
